One data set concerns the target T1, FumB (Escherichia coli, UniProt P14407).
T1 construct: full length, N-terminal His-tag (pET15b, gene from plasmid pGS56), expressed in E. coli BL21(DE3); [4Fe-4S] cluster regenerated with Fe2+ and L-cysteine; homodimer circa 120 kDa
As to the kind of experiment: fumarate depletion at […] nm, Michaelis-Menten fit. The note with it: anaerobic, 100 mM EPPS pH 8, 5% glycerol, 0.5 mM DTT, 37 °C; regenerated [4Fe-4S] enzyme. It counts as biochemical.

In another data set the target is FumA (Escherichia coli, UniProt P0AC33). The data set is described as follows: fumarate depletion at […] nm, Michaelis-Menten fit. It counts as biochemical. The note with it: anaerobic, 100 mM EPPS pH 8, 5% glycerol, 0.5 mM DTT, 37 °C; regenerated [4Fe-4S] enzyme.
Substrate in data set [1]: O=C(O)C(O)C(O)C(=O)O
The data set is described as follows: purified protein. The settings on record: anaerobic, 100 mM EPPS pH 8, 5% glycerol, 0.5 mM DTT, 100 µM NADH, 1 mM MgCl2, 37 °C, regenerated [4Fe-4S] enzyme.

Substrate in data set [2]: O=C(O)C[C@H](O)C(=O)O
The data set is described as follows: purified protein. The note with it: anaerobic, 100 mM EPPS pH 8, 5% glycerol, 0.5 mM DTT, 37 °C, regenerated [4Fe-4S] enzyme.

Data set [3] deals with the molecule itself. As to the kind of experiment: SEC; Superdex 200, to estimate the molecular weight of the native enzyme; data not shown.

For `O=C(O)/C=C/C(=O)O` [fumarate], the Km at FumB was 320 ± 40 µM; on FumA it was 460 ± 80 µM.

B1: Fumarase B (FumB) from Escherichia coli (enzyme, E. coli, UniProt P14407 1-548, looked up)
chain: MSNKPFIYQAPFPMGKDNTEYYLLTSDYVSVADFDGETILKVEPEALTLLAQQAFHDASFMLRPAHQKQVAAILHDPEASENDKYVALQFLRNSEIAAKGVLPTCQDTGTAIIVGKKGQRVWTGGGDEETLSKGVYNTYIEDNLRYSQNAALDMYKEVNTGTNLPAQIDLYAVDGDEYKFLCVAKGGGSANKTYLYQETKALLTPGKLKNFLVEKMRTLGTAACPPYHIAFVIGGTSAETNLKTVKLASAHYYDELPTEGNEHGQAFRDVQLEQELLEEAQKLGLGAQFGGKYFAHDIRVIRLPRHGASCPVGMGVSCSADRNIKAKINREGIWIEKLEHNPGQYIPQELRQAGEGEAVKVDLNRPMKEILAQLSQYPVSTRLSLTGTIIVGRDIAHAKLKELIDAGKELPQYIKDHPIYYAGPAKTPAGYPSGSLGPTTAGRMDSYVDLLQSHGGSMIMLAKGNRSQQVTDACHKHGGFYLGSIGGPAAVLAQQSIKHLECVAYPELGMEAIWKIEVEDFPAFILVDDKGNDFFQQIVNKQCANCTK
notes: FumB, class I [4Fe-4S] fumarase of E. coli; the gene from plasmid pGS56 was cloned into pET15b; After nickel column purification the enzyme held [3Fe-4S] clusters in only 10-25% of the protein, the rest being apoprotein; also called fumarate hydratase class I, anaerobic; source: E. coli BL21(DE3), pET15b-FumB, purified (nickel sepharose column)
For B1, in the data set “purified protein [1]”, the Km came out at 0.8 ± 0.1 mM, the Vmax is recorded as 9.2±0.4 umol product/minute/mg enzyme and the kcat/Km result is “(12±2)⋅10^3 s^-1 M^-1”. In “purified protein [2]”, the Michaelis-Menten constant (Km) worked out at 0.30 ± 0.07 mM, the Vmax result is recorded as “(4.9±0.3)·10^2 umol product/minute/mg enzyme” and the kcat/Km result is listed as “(1.6±0.4)⋅10^6 s^-1 M^-1”. For the same molecule, in data set [3], the “stoichiometry N” value is 2.

B2: FumA (Escherichia coli K-12) (protein)
chain: SNKPFHYQAPFPLKKDDTEYYLLTSEHVSVSEFEGQEILKVAPEALTLLARQAFHDASFMLRPAHQQQVADILRDPEASENDKYVALQFLRNSDIAAKGVLPTCQDTGTAIIVGKKGQRVWTGGGDEAALARGVYNTYIEDNLRYSQNAPLDMYKEVNTGTNLPAQIDLYAVDGDEYKFLCIAKGGGSANKTYLYQETKALLTPGKLKNYLVEKMRTLGTAACPPYHIAFVIGGTSAETNLKTVKLASAKYYDELPTEGNEHGQAFRDVELEKELLIEAQNLGLGAQFGGKYFAHDIRVIRLPRHGASCPVGMGVSCSADRNIKAKINRQGIWIEKLEHNPGKYIPEELRKAGEGEAVRVDLNRPMKEILAQLSQYPVSTRLSLNGTIIVGRDIAHAKLKERMDNGEGLPQYIKDHPIYYAGPAKTPEGYASGSLGPTTAGRMDSYVDQLQAQGGSMIMLAKGNRSQQVTDACKKHGGFYLGSIGGPAAVLAQGSIKSLECVEYPELGMEAIWKIEVEDFPAFILVDDKGNDFFQQIQLTQCTRCVK
With B2, in the data set “purified protein [1]”, the Km came to 0.8 ± 0.3 mM, the Vmax was 2.3±0.3 umol product/minute/mg enzyme and the kcat/Km result is on record as “(3±1)⋅10^3 s^-1 M^-1”. Moreover, in “purified protein [2]”, the Km is 0.7 ± 0.1 mM, the Vmax result was “(7.2±0.4)·10^2 umol product/minute/mg enzyme” and the kcat/Km entry was “(1.0±0.2)⋅10^6 s^-1 M^-1”.

The Km is the substrate concentration at which the rate is half of its maximum. By stoichiometry N is commonly meant a count of units in the complex or per binding partner.

The values above are taken from PMC3565967, “Biochemical Similarities and Differences between the Catalytic [4Fe-4S] Cluster Containing Fumarases FumA and FumB from Escherichia coli” (PLoS ONE, 2013).
